Series [1] can be described thus: Recovery of DOM101 from gut tissue and plasma after intra-duodenal administration, TNFR1-specific MSD assay. In kind it is in vivo, Han Wistar rats. As to the method:
Han Wistar rats were dosed with 1 mg DOM101 in the presence or absence of 100 mg CM, to determine if CM preserved the dAb™ in the gastrointestinal tract. Rats were briefly anaesthetised by isoflurane anaesthetic and a midline abdominal incision made to facilitate location of the duodenum for direct intra-duodenal injection (500 μl) of the dose formulations. Following dosing, the abdominal incisions were closed and the rats allowed to recover prior to their return to study cages. Direct dosing into the duodenum bypassed the acidic conditions of the gastric juices in the stomach and allowed for direct analysis of pharmacokinetics in the intestinal tract.
Animals were culled at the following time-points: 0.5, 1.5, 3, 5, 7 and 18 hours (three animals per group).
Blood samples were taken and the intestinal tract dissected out and divided into its constituent parts: duodenum (×2), jejunum (×6), ileum, caecum, colon (×2), rectum.
(§1) Intestinal samples were homogenised using the GentleMACS™ Dissociator in lysis buffer containing detergent and protease inhibitors. Samples were screened for DOM101 using a TNFR1-specific MSD™ assay. In brief, MSD plates were coated with TNFR1-Fc. Plates were washed and blocked with bovine serum albumin. Tissue samples were diluted and added to the plate, along with a standard curve of dAb™, then incubated at room temperature to allow binding. Plates were washed and a sulfo-tag-conjugated anti-Vh antibody was added to the wells. After incubation, the plate was washed and incubated with MSD read buffer. The resulting electrochemiluminescence signal was read on a Sector Imager 6000.
Results are expressed as nanograms per gram of tissue in FIG. 6.

A short description of series [2]: Recovery of DOM101 from the large intestine after intra-colonic administration. The format is in vivo, Han Wistar rats. As to conditions: 1 mg DOM101 intra-colonic. The method, then: as §1
Han Wistar rats were dosed with 1 mg DOM101 in the presence or absence of CM, to determine if camostat mesylate also preserved the dAb™ in the large intestinal tract. In brief, rats were anaesthetised by isoflurane anaesthetic, a midline abdominal incision made to facilitate location of the colon and 500 ul dose of the dose formulations injected directly into the colon. Following dosing, the abdominal incisions were loosely closed and the rats maintained under isoflurane anaesthesia and monitored for the duration of the experiment. […]
Samples were homogenised and screened as stated in Example 4. Results are expressed as nanograms per gram of tissue in FIG. 7.

Series [3] is described as follows: Transition midpoint (Tm) of dAbs, thermal stability (DSC). In kind it is physicochemical. As to the method:
“Transition midpoint” or “Tm” is the temperature where 50% of the single variable domain is in its native conformation and the other 50% is denatured. In an embodiment, the single variable domain has a high Tm. In particular the Tm is greater than or equal to about 66° C. The thermal stability of a single variable domain, including the Tm, may be determined using Differential Scanning calorimetry (DSC).
For these Examples, high Tm dAb™ refers to a dAb™ with a Tm of 66° C., and low Tm dAb™ refers to a dAb™ with a Tm of 56° C.

The mark [4] stands for this setting: 1 mg DOM101 intra-duodenal, absence of CM.

B1: DOM101: TNFR1 specific dAb, SEQ ID NO: 6 (protein)
VHH: EVQLLESGGGLVQPGGSLRLSCAASGFTFAHETMVWVRQAPGKGLEWVSHIPPDGQDPFYADSVKGRFTISRDNSKNTLYLQMNSLRAEDTAVYHCALLPKRGPWFDYWGQGTLVTVSS
modifications: Amino acid sequence identified using molecular biology techniques.
Take B1: in series [1] (setting [4]), the “amount of dAb detectable in the ileum (in words)” value was “small amounts”, the “time at which dAb was detectable in the duodenum” value amounted to 0.5 h and the “time up to which dAb was detectable in the jejunum” value is “up to 1.5 h”. Also, the “time after dosing at which dAb was detectable throughout the GI tract” value in series [1] (1 mg DOM101 intra-duodenal, presence of 100 mg CM) turned out to be 7 h. The level in plasma entry in series [1] (after intra-duodenal dosing, data not shown) was “less than 0.1 % of the total dose”. The “dAb levels at 3 h in the absence of CM compared with the two CM groups (in words)” value in series [2] (absence of CM, particularly caecum and rectum) is “substantially reduced”. Besides, the “dAb levels in caecum, colon and rectum at 0.5 h (in words)” value in series [2] (presence or absence of CM, rectum except 10 mg camostat group) was “High levels”.

B2: DOM3: domain antibody (single variable domain), Vh framework, SEQ ID NO: 3 (protein)
VHH: B1 VHH
modifications: Amino acid sequence identified using molecular biology techniques.
As for B2, the “Tm (° C.)” value in series [3] was 65 °C.

B3: DOM1: domain antibody (single variable domain), Vκ framework, SEQ ID NO: 1 (antibody, V domains shown)
VL: DIQMTQSPSSLSASVGDRVTITCRASQDIYLNLDWYQQKPGKAPKLLINFGSELQSGVPSRFSGSGYGTDFTLTISSLQPEDFATYYCQPSFYFPYTFGQGTKVEIKR
modifications: Amino acid sequence identified using molecular biology techniques.
Consider B3, for which the “Tm (° C.)” value in series [3] is 55 °C.

B4: DOM6: domain antibody (single variable domain), Vh framework, SEQ ID NO: 4 (protein)
VHH: EVQLLESGGGLVQPGGSLRLSCAASGFTFSEGTMWWVRQAPGKGLEWVSAILAAGSNTYYADSVKGRFTISRDNSKNTLYLQMNSLRAEDTAVYYCAKKRQERDGFDYWGQGTLVTVSS
modifications: Amino acid sequence identified using molecular biology techniques.
B4: in series [3], the “Tm (° C.)” value was 55.8 °C.

B5: DOM7: domain antibody (single variable domain), Vh framework, SEQ ID NO: 5 (protein)
VHH: EVQLLESGGGLVQPGGSLRLSCAASGSTFTDDRMWWVRQAPGKGLEWVSAIQPDGHTTYYADSVKGRFTISRDNSKNTLYLQMNSLRAEDTAVYYCAEQDVKGSSSFDYWGQGTLVTVSS
modifications: Amino acid sequence identified using molecular biology techniques.
B5: the “Tm (° C.)” value in series [3] amounted to 50.6 °C.

B6: DOM2: domain antibody (single variable domain), Vh framework, SEQ ID NO: 2 (protein)
VHH: EVQLLESGGGLVQPGGSLRLSCAASGFTFRNFGMGWVRQAPGKGLEWVSWIISSGTETYYADSVKGRFTISRDNSKNTLYLQMNSLRAEDTAVYYCAKSLGRFDYWGQGTLVTVSS
modifications: Amino acid sequence identified using molecular biology techniques.
For the molecule B6, the “Tm (° C.)” value in series [3] was 55.9 °C.

For the origin of these results see US20150306058A1, “COMPOSITION COMPRISING A SINGLE VARIABLE DOMAIN AND CAMOSTAT MESYLATE (CM)” (Glaxo Group Limited, priority 2012, published 2015).
